In US20160002357A1 (Pfizer, published 2016):

Legend:
[1] = molecular target: T1, human P-cadherin, cell surface expressed (human, UniProt P22223 108-829); assay: cell-based or functional assay
[2] = molecular target: T1, human P-cadherin, cell surface expressed; assay: cell-based or functional assay; remark: listed apart in the source

T1 sequence (P22223 108-829): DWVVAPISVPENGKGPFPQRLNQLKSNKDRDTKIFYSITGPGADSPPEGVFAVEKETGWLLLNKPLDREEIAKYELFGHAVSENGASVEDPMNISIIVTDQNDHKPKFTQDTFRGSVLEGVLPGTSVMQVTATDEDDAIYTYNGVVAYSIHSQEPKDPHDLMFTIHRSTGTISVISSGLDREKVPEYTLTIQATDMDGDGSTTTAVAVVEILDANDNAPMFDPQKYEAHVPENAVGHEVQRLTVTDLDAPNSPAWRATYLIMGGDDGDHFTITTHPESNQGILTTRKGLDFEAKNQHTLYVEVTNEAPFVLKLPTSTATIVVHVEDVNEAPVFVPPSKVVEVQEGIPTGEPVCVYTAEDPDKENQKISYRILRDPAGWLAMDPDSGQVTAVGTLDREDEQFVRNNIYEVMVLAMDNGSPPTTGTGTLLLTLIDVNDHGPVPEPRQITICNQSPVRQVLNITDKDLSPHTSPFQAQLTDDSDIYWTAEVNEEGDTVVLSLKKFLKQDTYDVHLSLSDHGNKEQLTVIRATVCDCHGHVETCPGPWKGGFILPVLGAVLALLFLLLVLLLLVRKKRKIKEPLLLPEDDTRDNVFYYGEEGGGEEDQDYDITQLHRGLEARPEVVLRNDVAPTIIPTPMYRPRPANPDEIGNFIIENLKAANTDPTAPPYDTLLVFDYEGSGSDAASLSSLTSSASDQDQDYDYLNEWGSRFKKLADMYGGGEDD

| Binder | T cell directed cytotoxicity EC50, CHO-CDh3 (24 h), LDH release, human PBMC E:T 30:1 [1] [pM] | T cell directed cytotoxicity EC50, H1650 (24 h), LDH release, human PBMC E:T 30:1 [1] [pM] | T cell directed cytotoxicity EC50, H1650 (40 h), LDH release, human PBMC E:T 30:1 [1] [pM] | T cell directed cytotoxicity EC50, H1650 LDH 24 hr 30:1 D41183 [2] [pM] | T cell directed cytotoxicity EC50, HCT116 Luc 48 hr 10:1 D43905 [2] [pM] |
| --- | --- | --- | --- | --- | --- |
| 33 EK-DART (P-CAD 33 x CD3-2) (bispecific antibody) chain 1: QSVLTQPPSVSAAPGQKVTISCSGSSSNIGNNYVSWYQQLPGTAPKLLIYDNNKRPSGIPDRFSGSKSGTSATLGITGLQTGDEADYYCGTWDSSLSAYVFGTGTKVTVLGGGSGGGGEVQLVESGGGLVQPGGSLRLSCAASGFTFNTYAMNWVRQAPGKGLEWVARIRSKYNNYATYYADSVKDRFTISRDDSKNSLYLQMNSLKTEDTAVYYCVRHGNFGNSYVSWFAYWGQGTLVTVSSGGCGGGKVAALKEKVAALKEKVAALKEKVAALKE chain 2: QAVVTQEPSLTVSPGGTVTLTCRSSTGAVTTSNYANWVQQKPGQAPRGLIGGTNKRAPWTPARFSGSLLGGKAALTITGAQAEDEADYYCALWYSNLWVFGGGTKLTVLGGGGSGGGGQMQLVQSGAEVKKPGASVKVSCKASGYTFTSYGISWVRQAPGQGLEWMGWISAYNGNTNYAQKLQGRVTMTTDTSTSTAYMELRSLRSDDTAVYYCALIGSGVAFDIWGQGTMVTVSSGGCGGGEVAALEKEVAALEKEVAALEKEVAALEK | 309 | 4100 | 1120 | – | – |
| 154 EK-DART (P-CAD 154 x CD3-2) (bispecific antibody) chain 1: QSVLTQPPSVSAAPGQKVTISCSGSSSNIGNNYVSWYQQLPGTAPKLLIYDNNKRPSGIPDRFSGSKSGTSATLGITGLQTGDEADYYCGTWDSSLSSYVFGTGTKVTVLGGGSGGGGEVQLVESGGGLVQPGGSLRLSCAASGFTFNTYAMNWVRQAPGKGLEWVARIRSKYNNYATYYADSVKDRFTISRDDSKNSLYLQMNSLKTEDTAVYYCVRHGNFGNSYVSWFAYWGQGTLVTVSSGGCGGGKVAALKEKVAALKEKVAALKEKVAALKE chain 2: QAVVTQEPSLTVSPGGTVTLTCRSSTGAVTTSNYANWVQQKPGQAPRGLIGGTNKRAPWTPARFSGSLLGGKAALTITGAQAEDEADYYCALWYSNLWVFGGGTKLTVLGGGGSGGGGEVQLVQSGAEVKKPGASVKVSCKASGYTFTSYGISWVRQAPGQGLEWMGWISAYNGNTNYAQKLQGRVTMTTDTSTSTAYMELRSLRSDDTAVYYCATIDTATAFDIWGQGTMVTVSSGGCGGGEVAALEKEVAALEKEVAALEKEVAALEK | – | – | – | 10.7 | 16.6 |
| 165 EK-DART (P-CAD 165 x CD3-2) (bispecific antibody) chain 1: QSVLTQPPSVSAAPGQKVTISCSGSSSNIGNNYVSWYQQLPGTAPKLLIYDNNKRPSGIPDRFSGSKSGTSATLGITGLQAGDEADYYCGTWDSSLSAYVFGTGTKVTVLGGGSGGGGEVQLVESGGGLVQPGGSLRLSCAASGFTFNTYAMNWVRQAPGKGLEWVARIRSKYNNYATYYADSVKDRFTISRDDSKNSLYLQMNSLKTEDTAVYYCVRHGNFGNSYVSWFAYWGQGTLVTVSSGGCGGGKVAALKEKVAALKEKVAALKEKVAALKE chain 2: QAVVTQEPSLTVSPGGTVTLTCRSSTGAVTTSNYANWVQQKPGQAPRGLIGGTNKRAPWTPARFSGSLLGGKAALTITGAQAEDEADYYCALWYSNLWVFGGGTKLTVLGGGGSGGGGEVQLVQSGAEVKKPGASVKVSCKASGYTFTSYGISWVRQAPGQGLEWMGWISAYNGNTNYAQKLQGRVTMTTDTSTSTAYMELRSLRSDDTAVYYCATIDTANAFDIWGQGTMVTVSSGGCGGGEVAALEKEVAALEKEVAALEKEVAALEK | – | – | – | 1.1 | 1.5 |
| 179 EK-DART (P-CAD 179 x CD3-2) (bispecific antibody) chain 1: QSVLTQPPSVSAAPGQKVTISCSGSRSNIGNNYVSWYQQLPGTAPKLLIYDSNKRPSGIPDRFSGSKSGTSATLGITGLQTGDEADYYCGTWDSSLSSWVFGGGTKLTVLGGGSGGGGEVQLVESGGGLVQPGGSLRLSCAASGFTFNTYAMNWVRQAPGKGLEWVARIRSKYNNYATYYADSVKDRFTISRDDSKNSLYLQMNSLKTEDTAVYYCVRHGNFGNSYVSWFAYWGQGTLVTVSSGGCGGGKVAALKEKVAALKEKVAALKEKVAALKE chain 2: QAVVTQEPSLTVSPGGTVTLTCRSSTGAVTTSNYANWVQQKPGQAPRGLIGGTNKRAPWTPARFSGSLLGGKAALTITGAQAEDEADYYCALWYSNLWVFGGGTKLTVLGGGGSGGGGEVQLVQSGAEVKKPGASVKVSCKASGYTFTSYGISWVRQAPGQGLEWMGWISAYNGNTNYAQKLQGRVTMTTDTSTSTAYMELRSLRSDDTAVYYCATIDTANAFDIWGQGTMVTVSSGGCGGGEVAALEKEVAALEKEVAALEKEVAALEK | – | – | – | 17.8 | 43.2 |
| 178 EK-DART (P-CAD 178 x CD3-2) (bispecific antibody) chain 1: QSVLTQPPSVSAAPGQKVTISCSGSSSNIGNNYVSWYQQLPGTAPKLLIYDNNKRPSGIPDRFSGSKSGTSATLGITGLQTGDEADYYCGTWDSSLSAVVFGGGTKLTVLGGGSGGGGEVQLVESGGGLVQPGGSLRLSCAASGFTFNTYAMNWVRQAPGKGLEWVARIRSKYNNYATYYADSVKDRFTISRDDSKNSLYLQMNSLKTEDTAVYYCVRHGNFGNSYVSWFAYWGQGTLVTVSSGGCGGGKVAALKEKVAALKEKVAALKEKVAALKE chain 2: QAVVTQEPSLTVSPGGTVTLTCRSSTGAVTTSNYANWVQQKPGQAPRGLIGGTNKRAPWTPARFSGSLLGGKAALTITGAQAEDEADYYCALWYSNLWVFGGGTKLTVLGGGGSGGGGEVQLVQSGAEVKKPGASVKVSCKASGYTFTSYGISWVRQAPGQGLEWMGWISAYNGNTNYAQKLQGRVTMTTDTSTSTAYMELRSLRSDDTAVYYCATIDTANAFDIWGQGTMVTVSSGGCGGGEVAALEKEVAALEKEVAALEKEVAALEK | – | – | – | 0.8 | 1.8 |
| 180 EK-DART (P-CAD 180 x CD3-2) (bispecific antibody) chain 1: QSVVTQPPSVSAAPGQKVTISCSGSSSNIGNNYVSWYQQLPGTAPKLLIYDNNKRPSGIPDRFSGSKSGTSATLGITGLQTGDEADYYCGTWDSSLSAYVFGTGTKVTVLGGGSGGGGEVQLVESGGGLVQPGGSLRLSCAASGFTFNTYAMNWVRQAPGKGLEWVARIRSKYNNYATYYADSVKDRFTISRDDSKNSLYLQMNSLKTEDTAVYYCVRHGNFGNSYVSWFAYWGQGTLVTVSSGGCGGGKVAALKEKVAALKEKVAALKEKVAALKE chain 2: QAVVTQEPSLTVSPGGTVTLTCRSSTGAVTTSNYANWVQQKPGQAPRGLIGGTNKRAPWTPARFSGSLLGGKAALTITGAQAEDEADYYCALWYSNLWVFGGGTKLTVLGGGGSGGGGEVQLVQSGAEVKKPGASVKVSCKASGYTFTSYGISWVRQAPGQGLEWMGWISAYNGNTNYAQKLQGRVTMTTDTSTSTAYMELRSLRSDDTAVYYCATIDTANAFDIWGQGTMVTVSSGGCGGGEVAALEKEVAALEKEVAALEKEVAALEK | – | – | – | 1.6 | 1.8 |
| 177 EK-DART (P-CAD 177 x CD3-2) (bispecific antibody) chain 1: QSVLTQPPSVSAAPGQKVTISCSGSSSNIGNNYVSWYQQLPGTAPKLLIYDNNKRPSGIPDRFSGSKSGTSATLGITGLQTGDEADYYCGTWDSSLSAYVFGTGTKVTVLGGGSGGGGEVQLVESGGGLVQPGGSLRLSCAASGFTFNTYAMNWVRQAPGKGLEWVARIRSKYNNYATYYADSVKDRFTISRDDSKNSLYLQMNSLKTEDTAVYYCVRHGNFGNSYVSWFAYWGQGTLVTVSSGGCGGGKVAALKEKVAALKEKVAALKEKVAALKE chain 2: QAVVTQEPSLTVSPGGTVTLTCRSSTGAVTTSNYANWVQQKPGQAPRGLIGGTNKRAPWTPARFSGSLLGGKAALTITGAQAEDEADYYCALWYSNLWVFGGGTKLTVLGGGGSGGGGEVQLVQSGAEVKKPGASVKVSCKASGYTFTSYGISWVRQAPGQGLEWMGWISAYNGNTNYAQKLQGRVTMTTDTSTSTAYMELRSLRSDDTAVYYCATIDTANAFDIWGQGTMVTVSSGGCGGGEVAALEKEVAALEKEVAALEKEVAALEK | – | – | – | 1.1 | 0.7 |
